Laboratory results taken from PMC9410875, “FOXL2 and FOXA1 cooperatively assemble on the TP53 promoter in alternative dimer configurations”.

What was measured:
FOXA1-DBD S177A = target: T1, FOXA1-DBD S177A (UniProt P55317 168-264, S177A); assay: EMSA; little change vs wild type; ITC: 20 mM HEPES pH 7.5, 150 mM NaCl, 10 mM MgCl2, 298 K. EMSA: 2.5 uM DNA, 20 mM HEPES pH 7.5, 50 mM KCl, 10 mM MgCl2, 1 mM DTT, 10% glycerol, on ice 30 min; FOXA1 EMSA: 20 mM Tris-HCl pH 8.0, 0.1 mg/ml BSA, 50 uM ZnCl2, 100 mM KCl, 2 mM beta-mercaptoethanol, 10% glycerol (50 mM EDTA for Mg2+ depletion); settings: protein: recombinant; label: 5' Cy3 on strand 1 (legends say Cy5); blunt
T1 sequence: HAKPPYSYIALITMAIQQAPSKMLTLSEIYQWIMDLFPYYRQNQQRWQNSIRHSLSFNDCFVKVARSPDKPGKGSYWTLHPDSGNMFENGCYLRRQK

FOXL2 full-length = target: T2, FOXL2 full-length (UniProt P58012 1-376); assay: EMSA; 1 or 10 ug protein; ITC: 20 mM HEPES pH 7.5, 150 mM NaCl, 10 mM MgCl2, 298 K. EMSA: 2.5 uM DNA, 20 mM HEPES pH 7.5, 50 mM KCl, 10 mM MgCl2, 1 mM DTT, 10% glycerol, on ice 30 min; FOXA1 EMSA: 20 mM Tris-HCl pH 8.0, 0.1 mg/ml BSA, 50 uM ZnCl2, 100 mM KCl, 2 mM beta-mercaptoethanol, 10% glycerol (50 mM EDTA for Mg2+ depletion); settings: protein: recombinant; label: 32P
T2 sequence: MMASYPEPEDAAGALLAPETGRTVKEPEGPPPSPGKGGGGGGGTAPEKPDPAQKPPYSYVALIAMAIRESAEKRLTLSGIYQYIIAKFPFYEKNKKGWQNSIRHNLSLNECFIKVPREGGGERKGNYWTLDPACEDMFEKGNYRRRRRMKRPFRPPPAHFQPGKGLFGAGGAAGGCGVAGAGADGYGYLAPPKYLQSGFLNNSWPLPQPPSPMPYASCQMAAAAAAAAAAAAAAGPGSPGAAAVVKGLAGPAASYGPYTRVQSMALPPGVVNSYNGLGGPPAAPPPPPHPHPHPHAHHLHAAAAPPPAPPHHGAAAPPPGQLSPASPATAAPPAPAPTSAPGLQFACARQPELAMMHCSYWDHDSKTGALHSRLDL

FOXL2-DBD [1] = target: T3, FOXL2-DBD (Homo sapiens, UniProt P58012 52-148); assay: ITC; 1:1 one-site curve; biphasic pattern lost; ITC: 20 mM HEPES pH 7.5, 150 mM NaCl, 10 mM MgCl2, 298 K. EMSA: 2.5 uM DNA, 20 mM HEPES pH 7.5, 50 mM KCl, 10 mM MgCl2, 1 mM DTT, 10% glycerol, on ice 30 min; FOXA1 EMSA: 20 mM Tris-HCl pH 8.0, 0.1 mg/ml BSA, 50 uM ZnCl2, 100 mM KCl, 2 mM beta-mercaptoethanol, 10% glycerol (50 mM EDTA for Mg2+ depletion); settings: protein: recombinant; tags: GST tag cleaved by TEV; blunt
T3 sequence: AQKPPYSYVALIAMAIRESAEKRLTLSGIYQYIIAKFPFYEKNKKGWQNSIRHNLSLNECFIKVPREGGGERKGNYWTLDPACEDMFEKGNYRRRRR

FOXL2-DBD [2] = target: T3, FOXL2-DBD; assay: ITC; 1:1 stoichiometry; 10 mM MgCl2, 298 K; ITC: 20 mM HEPES pH 7.5, 150 mM NaCl, 10 mM MgCl2, 298 K. EMSA: 2.5 uM DNA, 20 mM HEPES pH 7.5, 50 mM KCl, 10 mM MgCl2, 1 mM DTT, 10% glycerol, on ice 30 min; FOXA1 EMSA: 20 mM Tris-HCl pH 8.0, 0.1 mg/ml BSA, 50 uM ZnCl2, 100 mM KCl, 2 mM beta-mercaptoethanol, 10% glycerol (50 mM EDTA for Mg2+ depletion); settings: protein: recombinant; tags: GST tag cleaved by TEV; blunt
FOXA1-DBD = target: T4, FOXA1-DBD (UniProt P55317 168-264); assay: X-ray crystallography; 2:1, 2.1 A; Mg2+ at dimer interface; ITC: 20 mM HEPES pH 7.5, 150 mM NaCl, 10 mM MgCl2, 298 K. EMSA: 2.5 uM DNA, 20 mM HEPES pH 7.5, 50 mM KCl, 10 mM MgCl2, 1 mM DTT, 10% glycerol, on ice 30 min; FOXA1 EMSA: 20 mM Tris-HCl pH 8.0, 0.1 mg/ml BSA, 50 uM ZnCl2, 100 mM KCl, 2 mM beta-mercaptoethanol, 10% glycerol (50 mM EDTA for Mg2+ depletion); settings: protein: recombinant; tags: GST tag cleaved by TEV; chain copies: 2; blunt
T4 sequence: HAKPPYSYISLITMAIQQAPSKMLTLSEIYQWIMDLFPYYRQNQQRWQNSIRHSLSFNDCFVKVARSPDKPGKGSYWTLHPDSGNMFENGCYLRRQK

FOXL2-DBD [3] = target: T3, FOXL2-DBD; assay: ITC; 2:1 stoichiometry, biphasic; Kd values not in the text; ITC: 20 mM HEPES pH 7.5, 150 mM NaCl, 10 mM MgCl2, 298 K. EMSA: 2.5 uM DNA, 20 mM HEPES pH 7.5, 50 mM KCl, 10 mM MgCl2, 1 mM DTT, 10% glycerol, on ice 30 min; FOXA1 EMSA: 20 mM Tris-HCl pH 8.0, 0.1 mg/ml BSA, 50 uM ZnCl2, 100 mM KCl, 2 mM beta-mercaptoethanol, 10% glycerol (50 mM EDTA for Mg2+ depletion); settings: protein: recombinant; tags: GST tag cleaved by TEV; blunt

B1: p53-DNA 26 bp (S0) (dsDNA)
DNA 1: TCAAAAAATATTTATTATCGAGCTCT
DNA 2: AGAGCTCGATAATAAATATTTTTTGA
B1: binds (FOXA1-DBD S177A).

B2: TP53-DNA, 32P probe (dsDNA)
DNA 1: CCCTCATTCAAAAAATATTTATTATCGAGCTCTTACT
DNA 2: AGTAAGAGCTCGATAATAAATATTTTTTGAATGAGGG
B2: binds (FOXL2 full-length).

B3: p53 mut2 16 bp (ITC) (dsDNA)
DNA 1: AAATATTTATCCCTCA
DNA 2: TGAGGGATAAATATTT
B3: binds (FOXL2-DBD [1]).

B4: DBE2 DNA 16 bp (dsDNA)
DNA 1: CAAAATGTAAACAAGT
DNA 2: ACTTGTTTACATTTTG
Work on B4 yielded a Kd (FOXL2-DBD [2]) of 0.79 ± 0.1 µM.

B5: p53-DNA 16 bp (dsDNA)
DNA 1: AAATATTTATTATCGA
DNA 2: TCGATAATAAATATTT
B5: binds (FOXA1-DBD); binds (FOXL2-DBD [3]).
